Reference: US6255062A, “β-type DNA polymerases” (priority 1994, dated 2001)

Experiments:
[1] = system: DNA polymerases α, δ and ε; conditions: cited from earlier work
[2] = target: T1, yeast β-type DNA polymerase (Saccharomyces cerevisiae, UniProt P25615); assay: Inhibitor sensitivity of DNA polymerase activity in 12CA5 immunoprecipitates; assay type: biochemical; conditions: for Polβ Activity (1): experiment 1; for Polβ Activity (2): experiment 2
T1 construct: made in house; host or cells: Saccharomyces cerevisiae BJ5459 carrying pGAL18HAβ, galactose induced; 12CA5 immunoprecipitate on protein A beads

[3] = system: activated DNA or poly dA-oligo dT primer-template; assay: DNA polymerase activity in 12CA5 immunoprecipitates; assay type: biochemical; conditions: for Polβ Activity (1): experiment 1; for Polβ Activity (2): experiment 2
[4] = system: dA-dT and rA-dT primer-templates; assay: rNTP incorporation and reverse transcriptase activities of immunoprecipitated polymerase; assay type: biochemical
[5] = system: poly dT labeled at the 3'-end with terminal transferase; assay: 3' exonuclease activity; assay type: biochemical; conditions: data not shown
[6] = primer-template DNA, Aphidicolin (30 μg/ml), compare dCTP (10 mM) control
[7] = dA-dT (20:1), dTTP (10 mM)/ddTTP (10 mM)

C[C@@]1(CO)[C@H](O)CC[C@@]2(C)[C@H]1CC[C@H]1C[C@@H]3C[C@@]12CC[C@]3(O)CO [Aphidicolin, aphidicolin]
inhibition of DNA polymerases α, δ and ε ([1]; aphidicolin 30 μg/ml): completely inhibits
sensitivity of yeast β-type DNA polymerase to aphidicolin ([2]; 30 μg/ml): resistant
Polβ Activity (1) [2, 6]: 162
Polβ Activity (2) [2, 6]: 78

CCN1C(=O)C=CC1=O [NEM, N-ethylmaleimide]
sensitivity of yeast β-type DNA polymerase to N-ethylmaleimide ([2]; 10 mM): sensitive
Polβ Activity (1) ([2]; primer-template DNA, NEM (10 mM)): 8

Cc1cn([C@H]2CC[C@@H](COP(=O)(O)OP(=O)(O)OP(=O)(O)O)O2)c(=O)[nH]c1=O [ddTTP, dideoxythymidine triphosphate]
inhibition of DNA polymerase α, δ and ε ([1]; ddTTP at the levels used here): does not inhibit
Polβ Activity (1) [2, 7]: 11
Polβ Activity (2) [2, 7]: 6
effect of ddTTP on yeast β-type DNA polymerase ([2]; levels used in Table 2): inhibited

B1: HA polβ: β-type DNA polymerase from S. cerevisiae (POL4, SEQ ID NO:2) tagged at NH2 terminus with influenza hemagglutinin epitope (protein)
chain: MSLKGKFFAFLPNPNTSSNKFFKSILEKKGATIVSSIQNCLQSSRKEVIILIEDSFVDSDMHLTQKDIFQREAGLNDVDEFLGKIEQSGIQCVKTSCITKWVQNDKFAFQKDDLIKFQPSIIVISDNADDGQSSTDKESEISTDVESERNDDSNNKDMIQASKPLKRLLQEDKGRASLVTDKTKYKNNELIIGALKRLTKKYEIEGEKFRARSYRLAKQSMENCDFNVRSGEEAHTKLRNIGPSIAKKIQVILDTGVLPGLNDSVGLEDKLKYFKNCYGIGSEIAKRWNLLNFESFCVAAKKDPEEFVSDWTILFGWSYYDDWLCKMSRNECFTHLKKVQKALRGIDPECQVELQGSYNRGYSKCGDIDLLFFKPFCNDTTELAKIMETLCIKLYKDGYIHCFLQLTPNLEKLFLKRIVERFRTAKIVGYGERKRWYSSEIIKKFFMGVKFSPRELEELKEMKNDEGTLLIEEEEEEETKLNPIDQYMSLNAKDGNYCRRLDFFCCKWDELGAGRIHYTGSKEYNRWIRILAAQKGFKLTQHGLFRNNILLESFNERRIFELLNLKYAEPEHRNIEWEKKTA
modifications: N-terminal HA epitope tag
DNA polymerase activity relative to controls [3]: 10 fold
synthesis on the poly dA template alone (primer requirement) [3]: No synthesis was observed
Polβ Activity (1) ([3]; […], Complete): 101
Polβ Activity (1) ([3]; […], dCTP (10 mM)): 212
Polβ Activity (2) ([3]; […], dCTP (10 mM)): 106
Polβ Activity (1) ([3]; dA-dT (10:1), Complete): 105
Polβ Activity (2) ([3]; dA-dT (10:1), Complete): 244
Polβ Activity (1) ([3]; dA-dT (20:1), Complete): 293
Polβ Activity (2) ([3]; dA-dT (20:1), Complete): 411
Polβ Activity (1) ([3]; dA-dT (20:1), dTTP (10 mM)): 95
Polβ Activity (2) ([3]; dA-dT (20:1), dTTP (10 mM)): 102
processivity [4]: processivity is low
Activity ([4]; dA-dT, 3H NTP T, Mg, Experiment 1): 480 pmol
Activity ([4]; dA-dT, 3H NTP T, Mn, Experiment 1): 769 pmol
Activity ([4]; dA-dT, 3H NTP U, Mg, Experiment 1): 110 pmol
Activity ([4]; dA-dT, 3H NTP U, Mg, Experiment 2): 187 pmol
Activity ([4]; dA-dT, 3H NTP U, Mn, Experiment 1): 202 pmol
Activity ([4]; dA-dT, 3H NTP U, Mn, Experiment 2): 209 pmol
reverse transcriptase activity ([4]; in the presence of either Mg++ or Mn++): significant reverse transcriptase activity
Activity ([4]; rA-dT, 3H NTP T, Mg, Experiment 1): 65 pmol
Activity ([4]; rA-dT, 3H NTP T, Mg, Experiment 2): 81 pmol
Activity ([4]; rA-dT, 3H NTP T, Mn, Experiment 1): 191 pmol
Activity ([4]; rA-dT, 3H NTP T, Mn, Experiment 2): 59 pmol
Activity ([4]; rA-dT, 3H NTP U, Mg, Experiment 2): 32 pmol
Activity ([4]; rA-dT, 3H NTP U, Mn, Experiment 2): 55 pmol
3' exonuclease activity [5]: no 3' exonuclease activity
